Test: soluble on expression in E. coli; label from the status in PepcDB or PDB records

## MGSDKIHHHHHHMKALIFDVDDTLYDQIQPFERALERHIEVAREQIEPLYLSFRRYADEVFEATAIGKMSLKDSHIYRMKHALADFGYQVSDATALAIQIDYDYFQGQIELSPVFPEIFSWCQAQGIAMGIITNGPYRHQLRKIRTMGLVNWFELEHVLISGQVGITKPNPAIFQLMEERLGMSGEDICYLGDSFENDVVGAKAANWKAIWFNHRKRVEPTAPYYAYYVVTDWDELVEVIQSF
  soluble on expression in E. coli: not soluble

## MSKSGVPRLLTASERERLEPFIDQIHYSPRYADDEYEYRHVMLPKAMLKAIPTDYFNPETGTLRILQEEEWRGLGITQSLGWEMYEVHVPEPHILLFKREKDYQMKSQQRGG
  soluble on expression in E. coli: soluble

## TKLSPELLVKLGSEGVLAGVKDSSGDDVSFRRLVMLNKKAGSPLTLLTGHEAVVDGAFIAGADGCVPGLGNVDPAGYVRMWKAAEAGDWATVQKEQDRLAALFEIVFQPIGKVGPAAGVGSFKTALE
  soluble on expression in E. coli: not soluble

## AHHHHHHGSIRASKRALSVEYAIRDVVLPARELEKKGIKVIRLNIGDPVKFDFQPPEHMKEAYCKAIKEGHNYYGDSEGLPELRKAIVEREKRKNGVDITPDDVRVTAAVTEALQLIFGALLDPGDEILVPGPSYPPYTGLVKFYGGKPVEYRTIEEEDWQPDIDDIRKKITDRTKAIAVINPNNPTGALYDKKTLEEILNIAGEYEIPVISDEIYDLMTYEGEHISPGSLTKDVPVIVMNGLSKVYFATGWRLGYMYFVDPENKLSEVREAIDRLARIRLCPNTPAQFAAIAGLTGPMDYLKEYMKKLKERRDYIYKRLNEIPGISTTKPQGAFYIFPKIEVGPWKNDKEFVLDVLHNAHVLFVHGSGFGEYGAGHFRAVFLPPIEILEEAMDRFEKFMKERLKE
  soluble on expression in E. coli: soluble

## MGHHHHHHSHLTVQFVPSQNAGTLEAKAKPLEKLLSKELGIPVKVSVSTNYNTIVEAMKSKKVDVGFLPPTAYTLAHDQKAADLLLQAQRFGVKEDGSASKELVDSYKSEILVKKDSKIKSLKDLKGKKIALQDVTSTAGYTFPLAMLKNEAGINATKDMKIVNVKGHDQAVISLLNGDVDAAAVFNDARNTVKKDQPNVFKDTRILKLTQAIPNDTISVRPDMDKDFQEKLKKAFIDIAKSKEGHKIISEVYSH
  soluble on expression in E. coli: not soluble

## MGLREIEKVTVFCLANENTDISYEVNRALGEIRIYVPYDFMDFLALNSVEEKYKEFCKLVRQYVVPGLEENSTLSSSVVKGYIEESLDEIVKQNYEGIFLVGKTPKKSPSRKKIAILKGIHRVKGFQLRCEVYDEKGLKIRDQLLVEEVGNEMVYSRFLGTLKWESENLIVVQSKSSSWKEEIYL
  soluble on expression in E. coli: not soluble

## MSFRIYNTQKWSAEQMAPYLDKVIKSIAYFHKKFPDDYTPQTILNDILKGDKLLWIIVDEQENFMAHVTTELQKLVTGALRAVIVTLGGKGGAPLTKLIPQIEAYYKEKGAKELIIIGRRGWKKSLKSHGYFVNLLEYRKQL
  soluble on expression in E. coli: not soluble

## MEALRLGFSPCPNDTFIFYALVHGRVESPVPLEPVLEDVETLNRWALEGRLPLTKLSYAAYAQVRDRYVALRSGGALGRGVGPLVVARGPLQALEGLRVAVPGRHTTAYFLLSLYAQGFVPVEVRYDRILPMVAQGEVEAGLIIHESRFTYPRYGLVQVVDLGAWWEERTGLPLPLGAILARRDLGEGLIRALDEAVRRSVAYALAHPEEALDYMRAHAQELSDEVIWAHVHTYVNAFSLDVGEEGERAVARLFAEAEARGLAAPSPRPLFV
  soluble on expression in E. coli: soluble

## MAEEEVGNSQRQSEEIEAMAAIYGEEWCVIDENAKIFCIRVTDFMDDPKWTLCLQVMLPSEYPGTAPPSYQLNAPWLKGQERADLSNSLEEIYVHNMGESILYQWVEKIRDALIQKSQITEPDPDVKKKTEEVEVESEEDPILEHPPENPVKTLDLKISEETQPETEELPPVAHGVPITDRRSTFQAHVAPVVCPEQVKLVLAKLYENKKIASATHNIYAYRIFCEDKQTFLQDCEDDGETAAGGRLLHLMEILNVKNVMVVVSRWYGGILLGPDRFKHINNCARNILVEKNFTNTPDESTKNLGKKKVKKDKKKNDH
  soluble on expression in E. coli: soluble

## SNAMNNTQKKLKVLFIGESWHIHMIHSKGYDSFTSSKYEEGATWLLECLRKGGVDIDYMPAHTVQIAFPESIDELNRYDVIVISDIGSNTFLLQNETFYQLKIKPNALESIKEYVKNGGGLLMIGGYLSFMGIEAKANYKNTVLAEVLPVIMLDGDDRVEKPEGICAEAVSPEHPVVNGFSDYPVFLGYNQAVARDDADVVLTINNDPLLVFGEYQQGKTACFMSDCSPHWGTQQFMSWPFYTDLWVNTLQFIARK
  soluble on expression in E. coli: soluble

## MSAEPEFVAARFLPEGERFLVEPLGGGLINRTWLVSPAASPRFVLQRLNTRVFAHPGRITVNLCRIQGRVKQGRSGLAEHWPDLVAPRAGGDAFIDAEGGYWRAQRYLEGSRVLEHIATERQALEVGRVLGTFHAALGEIDCTELEDTLPDFHIAPAYLARLDAVRTSAGAADPSVRQALDFVEARRDFVPVLERAKAAGRLALRIIHGDPKLANILFDRDGERALTLIDLDTVKPGLVHYDIGDCLRSCCNRSGESSDDPGAARFDLALCEAILRGYLAAAGDMLTAEDRDHLYDAIRLIPLELGIRFLADHLAGDVYFRVESRGQNLRRARVQFRLVECIEADETAIRRIVAAPSPSMETGEGLEHHHHHH
  soluble on expression in E. coli: not soluble

## MRALALDVGLKRIGVALCIDKKIALPLDAVLRKNRNQAANEIKNLLKIHEISLLIVGIPKGGSSEEEMTRRIKHFVSLLEFDKEICFVDESGTSKEALGYGVANTRKKDGKLDSLSAFIMIKDYFALLEHHHHHH
  soluble on expression in E. coli: not soluble

## MPSRAEDYEVLYTIGTGSYGRCQKIRRKSDGKILVWKELDYGSMTEAEKQMLVSEVNLLRELKHPNIVRYYDRIIDRTNTTLYIVMEYCEGGDLASVITKGTKERQYLDEEFVLRVMTQLTLALKECHRRSDGGHTVLHRDLKPANVFLDGKQNVKLGDFGLARILNHDTSFAKTFVGTPYYMSPEQMNRMSYNEKSDIWSLGCLLYELCALMPPFTAFSQKELAGKIREGKFRRIPYRYSDELNEIITRMLNLKDYHRPSVEEILENPLIADLVADEQRRNLERRGRQLGEPEKSQDSSPVLSELKLKEIQLQERERALKAREKRLEQKEQELCVRERLAEDKLARAENLLKSYSLLKERKFLSLASNPELLNLPSSVIKKKVHFSGESKENIMRSENSESQLTSKSKCKDLKKRLHAAQLRAQALSDIEKNYQLKSRQILGMR
  soluble on expression in E. coli: soluble

## MIEWQDLHHSELSVSQLYALLQLRCAVFVVEQNCPYQDIDGDDLTGDNRHILGWKNDELVAYARILKSDDDLEPVVIGRVIVSEALRGEKVGQQLMSKTLETCTHHWPDKPVYLGAQAHLQNFYQSFGFIPVTEVYEEDGIPHIGMAREVIQA
  soluble on expression in E. coli: soluble

## MNSENSFSSSEHITVLLHEAVNGLALKENGIYIDGTFGRGGHSRFILSQLSSNGRLIAVDRDPRAIAEAHKIQDLRFQIEHNSFSHIPEICDKLNLVGKIDGILLDLGVSSPQLDEAERGFSFMKDGPLDMRMDTTQGLSAEEWLKQVSIEDLTWVLKTFGEERFAKRIATAIVDFNKSAVKNGTEFLSRTSQLAELISQAVPFKDKHKHPATRSFQAIRIFINSELDELESLLNSALDMLAPEGRLSIISFHSLEDRMVKHFMKKQSKGEDIPKGLPLREDQIQRNQKLRIIGKAIQPSDAEIQANPRSRSAILRVAERI
  soluble on expression in E. coli: not soluble

## GPGSMSTSEGNAANRFAGRVKQAEDPFVKALRIKVNGLKRNMKDLEFAKKEVVCETARLESIRDTNPDRVKQQENVIAEAQMMIPHSENRVRAAIKDLQDFLDTHENDAEEGELMQDARTTLESAQLTLSKQ
  soluble on expression in E. coli: soluble

## MAHHHHHHMPPLTLEQVLARSMRLPRKHMKHTATPMASNPAIGISTPLDNSLGRGDKSVAKLFSLIEKDEESTAAGRPFIHQSNNLIRNSHDLLTYLHTAKRMRAWEDALRSFAEVTKMLLINQTEEGDGVSLTLREGAEGAEGVTASVSHLALLLDTCASAKQWHLVEQIGEIFRSQSRQTLIDAVAVLANTKKETIGEGLYGWERALHFLQTRIPPEEQPVEAYNACIAACETALEWEGALAIVRSMGPNPLQNLDSKVFSGTTGIGVASAGSTVEGVSSSLGTEAREESVLATFPPPVPDVVTYATLISVLEQSGKEALASEVLQRLPPVEKEEITASYAALIHVWSEQKYRNHRRRF
  soluble on expression in E. coli: not soluble

## MTDNARKEYLNQFFGSKRYLYQDNERVAHIHVVNGTYYFHGHIVPGWQGVKKTFDTAEELETYIKQQDLEYEEQKQLTLFLEHHHHHH
  soluble on expression in E. coli: not soluble

## GEFAQECQNLEVERQRRLERIKQKQSQLQELILQQIAFKNLVQRNRHAEQQASRPPPPNSVIHLPFIIVNTSKKTVIDCSISNDKFEYLFNFDNTFEIHDDIEVLKRMGMACGLESGSCSAEDLKMARSLVPKALEPYVTEMAQGTVGGVFITTA
  soluble on expression in E. coli: soluble

## MSRDGSVAPKERINIRYVPATGDTQEDVELPLSMMVVGDFTARADETPIEERTPINIDKDNFNDVLEGMSPNVKVNVENRLSDEEGAQIGVDLTFQNMKDFSPEAIAKSVPELNSLLELREALVALKGPLGNVPAFRKKIASVLQDEEARKKLLDELSIGNDQDAKEE
  soluble on expression in E. coli: soluble

## MAHHHHHHMKGDAEVVDIGSEVLSVTFSNSGRRLAVLTMRQEISVYETVVPTEPIIIKTFQTSFDAAGGWNKTVGPRSANYNARFNVIAFSPEGEKIVAGGDSKWIVMYHATQGYMLKKWPVTTNQDVQGAEEQYQWRQMTEAGHVDDIDVDDADIHLRRGKIMEMPGSRHRHFATGKRQTALTARTMDLAFSCTGTEFVAATTDGLLMFSTRVARPKFQPLQLSANITTQQVRDQLDRGEPVMALMGAMKLGDKMLGVECLRRMPRDAIPVAVSSVPSVLFPLLVQWVSTEVEESRGIEQALLWAQSLMLHSNECTGGFAQERSAVIPALKVLQRGLQQHRALTDLAKENYFSLRYIIDMTKMQKDILQPAATVE
  soluble on expression in E. coli: not soluble

## MPHPAPNAAAPRVHIIGAGMAGLACAVRLVSHGRAVSLHEAAGQAGGRCRSFVDASLDRLIDNGNHLLLSGNRAVNAFLATIGASDRLDGPERARFPFLDVETGERWCLTPSAGPVPWWLLRADRRIPGTRARDYLEGLKLARASDADRVADLLTPGTPLYRRFWAPLTVGVLNAAPEEAAAALLWPVIKETFGRGEAACRPRMARNGLSDSFVTPALAWLTARGAEIAFNHRLRAIEYGDGRPAALVFSEETPLRLGPADQVVLAVPPAVAAGLLPGLTVPEGSRCIVNAHFRLDHAPEGFADDFEGPLGVIGGTAEWLFVRGDVASVTVSAADALAALDPDEIAARIWRDVALALGLDAAARPPVRIIKEKRATFAQTPDQLCRRPPTRPPGYGLCLAGDWTHTGLPATIEGALRSGEAAADAALHWRFTLEHHHHHH
  soluble on expression in E. coli: not soluble

## MSLIIKGALVWSGKEFVQKDLFVENGEFVEKSSEPVIDAKGYFLVPGFVDSHAHVVGTGFSKLSVQFNDWDELFERDLTSEVVVGRGWFEEPDGSVVERLDRIEAPVFLIRRCGHKAFLNKKAMEVLGVEERYLVENLEKIYEYVFKEKIAEFYRVGEEEFLKHGVTFVQSDDLYGVSVERLLSIIKHSRIRLFEKLKPKDLKPEHFGDLNKRVHVKGVKVFMDGSLGAKTALISGEYDDGTQGVQLLTEEKLEELARFCDEHDLILNVHAIGDSAVSLVLDVLERHRGHRIIHAQFVQEKDLQRVKNTTFSVQPHFFFEDQPLLKKVKVNALHYPFYRMFKAGVSISFSSDSPVSPCDPKYIAEHALKMGFSREETFYLMTEAGASQVGIKTGKIEAGYRADFCLYERNPLLFEDDPIAVFVEGEKIYEKNGSSHEGHHHHHH
  soluble on expression in E. coli: soluble

## MGPAPRVLELFYDVLSPYSWLGFEVLCRYQHLWNIKLKLRPALLAGIMKDSGNQPPAMVPHKGQYILKEIPLLKQLFQVPMSVPKDFFGEHVKKGTVNAMRFLTAVSMEQPEMLEKVSRELWMRIWSRDEDITESQNILSAAEKAGMATAQAQHLLNKISTELVKSKLRETTGAACKYGAFGLPTTVAHVDGKTYMLFGSDRMELLAYLLGEKWMGPVPPTLNARL
  soluble on expression in E. coli: soluble
